Four molecules from US20260226120A1 (University of Washington, published 2026) can be followed below.

The assay deals with HLA-DQ7 (MHC class II) on autologous antigen presenting cells (BLCL) of patient 5 (human). The assay can be described thus: cell-based or functional assay.

“And” between values parts separate entries of the source, which are not always exact repeats. Identical values can stand only once.

As for LSDGTGLNAL [P17 redesign Des-3 peptide (163-LSDGTGLNAL-172)], the “interferon gamma ELISpot with expanded patient 5 T cells” value (“interferon gamma ELISpot” for short) is ~25 spot forming units/10,000 cells.
WSDGLALNAL [native dystrophin exon-6 P17 HLA-DQ7 epitope peptide (163-WSDGLALNAL-172)]: the “interferon gamma ELISpot” value is ~75 spot forming units/10,000 cells and ~3 fold above background.
With WSDGTGLNAL [P17 redesign Des-2 peptide (163-WSDGTGLNAL-172)], the “interferon gamma ELISpot” value is ~25 spot forming units/10,000 cells.
Under WSNGLGLDAL [P17 redesign Des-1 peptide (163-WSNGLGLDAL-172)] stands ~25 spot forming units/10,000 cells.
